Results reported in US20040014148A1 (RIGEL PHARMACEUTICALS, published 2004).
No end group written: not given here.

B1: peptide DL03wt (peptide)
peptide: LYTSILLHGATTASMTKPLA
modifications: also: expressed as BFP fusion (BFP, alpha-helical linker, peptide) in GAL4 bait vector, fusion sequences not given here
B2: peptide DL03IL (peptide)
peptide: LYTSAALHGATTASMTKPLA
B3: peptide DL03LA (peptide)
peptide: LYTSILLHGATTASMTKPAR
B4: peptide DL03KP (peptide)
peptide: LYTSILLHGATTASMTAALA

What was measured:
[1] = target: T1, human chloride intracellular channel 1 (human, UniProt O00299 1-241); assay: cell-based or functional assay
[2] = target: T1, human chloride intracellular channel 1; assay: cell-based or functional assay; remark: listed apart in the source

Binder | endogenous epsilon inhibition ratio (TAQMAN quantitative PCR, +IL-4/+Dox to +IL-4/-Dox) [1] | reporter ratio (original library clone screen, A5T4 cells) [1] | Reporter Ratio (A5T4 reporter line, IL-4 induced germline epsilon transcription) [2]
B1 | 2.11 | 1.32 | 1.5
B2 | – | – | 1.16
B3 | – | – | 1.22
B4 | – | – | 1.77
